T1: ALCAM (Activated leukocyte cell adhesion molecule) (Homo sapiens (Human), UniProt Q13740 28-583)
T1 construct: Native protein on cancer cell lines; also called CD166 antigen; CD166
T1 sequence: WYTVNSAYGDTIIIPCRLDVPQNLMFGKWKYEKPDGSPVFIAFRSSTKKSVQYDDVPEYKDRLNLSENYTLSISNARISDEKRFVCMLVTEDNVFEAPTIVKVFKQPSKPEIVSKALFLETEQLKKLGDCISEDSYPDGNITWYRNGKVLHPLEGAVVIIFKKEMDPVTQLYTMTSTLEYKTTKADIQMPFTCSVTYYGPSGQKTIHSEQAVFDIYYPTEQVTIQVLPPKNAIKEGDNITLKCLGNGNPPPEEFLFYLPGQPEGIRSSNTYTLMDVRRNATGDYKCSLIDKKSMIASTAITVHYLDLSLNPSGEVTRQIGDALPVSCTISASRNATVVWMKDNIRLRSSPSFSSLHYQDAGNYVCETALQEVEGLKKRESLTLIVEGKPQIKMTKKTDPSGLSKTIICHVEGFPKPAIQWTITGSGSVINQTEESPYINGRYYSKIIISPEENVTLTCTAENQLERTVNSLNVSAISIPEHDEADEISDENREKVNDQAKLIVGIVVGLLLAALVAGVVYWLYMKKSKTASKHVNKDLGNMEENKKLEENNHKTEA


These binders were tested against T1, ALCAM (Activated leukocyte cell …) (assay: antigen assigned by the filing's classifying and identification method; details for this clone not given).

| Binder | binding result |
| --- | --- |
| 084-103 antibody (antibody, V domains shown, Clone of the scFv-CL-cp3 phage library) VH: QVQLVQSGAEVKKPGSSVKVSCKASGGTFSSYAISWVRQAPGQGLEWMGWMNPNSGNTGYAQKFQGRVTMTRNTSISTAYMELSSLRSEDTAVYYCARDVGIGVFDYWGQGTLVTVSR VL: SYVLTQPPSVSVAPGKTARITCGGNNIGSKSVHWYQQKPGQAPVLVIYYDSDRPSGIPERFSGSNSGNTATLTISRVEAGDEADYYCQVWDSSSDHVVFGGGTKLTVLG | binds |
| 045-134 antibody (antibody, V domains shown, Clone of the scFv-CL-cp3 phage library) VH: not shown VL: QSVLTQPPSASGTPGQRVTISCSGSSSNIGSNYVYWYQQLPGTAPKLLIYRNNQRPSGVPDRFAGSKSGTSATLGITGLQTGDEADYYCGTWDSSLSAGVFGGGTKLTVLG | binds |
| 029-143 antibody (antibody, V domains shown, Clone of the scFv-CL-cp3 phage library) VH: not shown VL: SSELTQDPAVSVALGQTVRITCQGDSLRSYYASWYQQKPGQAPVLVIYGKNNRPSGIPDRFSGSSSGNTASLTITGAQAEDEADYYCNSRDSSGNVVFGGGTKLTVLG | binds |
| 029-067 antibody (antibody, V domains shown, Clone of the scFv-CL-cp3 phage library) VH: QVQLQQSGAEVKKPGASVKVSCKASGYTFTTYYMHWVRQAPGQGLEWMGIINPSGENTNYAQKFQGRVTMTRDTSTTTVYMELSSLRSEDTAVYYCARSFIGTRGGGLDVWGQGTTVTVSR VL: QSVLTQPPSVSGAPGQRVNISCAGSSSNIGAGYDVHWYQQIPGTAPKLLMYGNSNRPSGVPDRFSGSKSGASASLAITRLQAEDEADYYCQSYDSSLSGSRVFGTGTKVTVLG | binds |
| 062-101 antibody (antibody, V domains shown, Clone of the scFv-CL-cp3 phage library) VH: QVQLVQSGAEVKKPGASVKVSCKASGYTFTSYYMHWVRQAPGQGLEWMGIINPSGGSTSYAQKFQGRVTMTRDTSTSTVYMELSSLRSEDTAVYYCARELSAATAFDIWGQGTMVTVSR VL: ETTLTQSPFSVSASVGDRVTITCRASQYISRWLAWYQQRPGKAPKLLIYAAASLQSGVPSRFSGSGSGTDFTLTISSLQPEDFATYYCQQANSFPVTFGQGTRLEIK | binds |
| 062-109 antibody (antibody, V domains shown) VH: QVQLVQSGAEVKKPGASVKVSCKASGYTFTSYGISWVRQAPGQGLEWMGWISAYNGNTNYAQKLQGRVTMTTDTSTSTAYMELRSLRSDDTAVYYCARVGYYYYYGMDVWGQGTTVTVSR VL: QSALTQPASVSGSPGQSITISCTGTSSDVGSYNLVSWYQQHPGKAPKLMIYEGSKRPSGVSNRFSGSKSGNTASLTISGLQAEDEADYYCSSYTSSSTWVFGGGTKLTVLG | binds |

Each binder was assayed against T2, HER2 (Homo sapiens (Human), UniProt P04626 23-1255) in the same assay as above.
T2 construct: Native protein on cancer cell lines; also called erbB-2; ErbB2

| Binder | binding result |
| --- | --- |
| 039-016 antibody (antibody, V domains shown, Clone of the scFv-CL-cp3 phage library) VH: EVQLVESGGNLVQPGGSLRLSCAASGFTFSRYWMTWVRQAPGKGLEWISSVSSSGSTIYYADSVKGRFTISRDNAKNSLYLQMNSLRVEDTAVYYCARDYWPGWYFDLWGRGTLVTVSR VL: QAVLTQPSSLSASPGASASLTCTFRSDISVGSYRIYWYQQKPGSPPQFLLKYTSDSDKQQGSGVPSRFSGSKDVSANAGILLISGLQSEDEADYYCMTWHNTASVFGGGTKLAVLG | binds |
| 075-110 antibody (antibody, V domains shown, Clone of the scFv-CL-cp3 phage library) VH: EVQLVESGGGLVQPGGSLRLSCSASGFTFSNYWMTWVRQAPGKGLEWISSISSSGSTIYYADSVKGRFTISRDNAKNSLYLQMNSLRVEDTAVYYCARDYWPGWYFDLWGRGTLVTVSR VL: QAVLTQPSSLSASPGASASLTCTFRSDISVGSYRIYWYQQKPGSPPQFLLKYTSDSDKQQGSGVPSRFSGSKDVSANAGILLISGLQSEDEADYYCMTWHNTASVFGGGTKLAVLG | binds |
| 015-209 antibody (antibody, V domains shown, Clone of the scFv-CL-cp3 phage library) VH: EVQLVESGAEVKKPGESLKISCKGSGYSFTSYWIGWVRQMPGKGLEWMGIIYPGDSDTRYSPSFQGQVTISADKSISTAYLQWSSLKASDTAMYYCARLAVGAYQYYFDYWGQGTLVTVSR VL: QTVVTQEPSFSVSPGGTVTLTCGLSSGSVSTSYYPSWYQQTPGQAPRTLIYSTNTRSSGVPDRFSGSILGNKAALTITGAQADDESDYYCVLYMGSGISVFGGGTKLTVLG | binds |
| 086-182 antibody (antibody, V domains shown, Clone of the scFv-CL-cp3 phage library) VH: QVQLVQSGAEVKKPGESLKISCKGSGYSFTSYWIGWVRQMPGKGLEWMGIIYPGDSDTRYSPSFQGQVTISADKSISTAYLQWSSLKASDTAMYYCARHGMTSGYVAHNDYWGQGTLVTVSR VL: QTVVTQEPSFSVSPGGTVTLTCGLSSGSVSTSYYPSWYQQTPGQAPRTLIYSTNTRSSGVPDRFSGSILGNKAALTITGAQADDESDYYCVLYMGSGIWVFGGGTKLTVLG | binds |
| 086-035 antibody (antibody, V domains shown, Clone of the scFv-CL-cp3 phage library) VH: QVQLVQSGAEVKKPGESLKISCEGSGYTFTSYWIGWVRQMPGKDLEWMGIIYPGDSDTRYSPSFQGQVTISVDKSISTAYLQWSSLKASDTAMYYCARHDVVDGYNTGMDVWGQGTTVTVSR VL: QTVVTQEPSFTVSPGGTVTLTCGLSSGSVSTSYYPSWYQQTPGQAPRTLISSTNTRSSGVPDRFSGSILGNRAALTITGAQADDESDYYCVLYMGSGIWVFGGGTKLTVLG | binds |
| 086-036 antibody (antibody, V domains shown, Clone of the scFv-CL-cp3 phage library) VH: QVQLVQSGAEVKKPGESLKISCKGSGYSFTSYWIGWVRQMPGKGLEWMGIIYPGDSDARYSPSFQGQVTISADKSISTAYLQWSSLKASDTAMYYCARLTGSSYYDSSGYSSYGMDVWGQGTTVTVSR VL: QTVVTQEPSFSVSPGGTVTLTCGLSSGSVSTSYYPSWFQQTPGQAPRTLIYSTNTRSSGVPDRFSGSILGNKAALTITGAQADDESDYYCVLYMGSGISVFGGGTQLTVLG | binds |
| 086-061 antibody (antibody, V domains shown, Clone of the scFv-CL-cp3 phage library) VH: QVQLVQSGAEVKKPGESLKISCKGSGYSFTSYWIGWVRQMPGKGLEWMGIIYPGDSDTRYSPSFQGQVTISADKSISTAYLQWSSLKASDTAMYYCARHNSNYYYYYMDVWGKGTLVTVSR VL: QTVVTQEPSFSVSPGGTVTLTCGLSSGSVSTSYYPSWYQQTPGQAPRTLIYSTNTRSSGVPDRFSGSILGNKAALTITGAQADDESDYYCVLYMGSGISVFGGGTKLTVLG | binds |
| 053-216 antibody (antibody, V domains shown, Clone of the scFv-CL-cp3 phage library) VH: EVQLVESGGGLIRPGGSLRLSCTASGFTFSSYTMNWVRQAPGKGLEWLSYISGGSGTKFYADSVKGRFTVSRDNAKNSLYLEMNSLRPEDTAVYYCALVSYSSPGFDYWGQGTLVTVSS VL: SYELTQPPSVSVSPGQTASITCSGDKLGDKYVYWYQQKPGQSPILLIFQDSERPSGIPERFSGSNSGNTATLTISGTQAMDEADYYCQAWDSSAAVFGGGTKLTVLG | binds |
| 015-102 antibody (antibody, V domains shown, Clone of the scFv-CL-cp3 phage library) VH: not shown VL: QSALTQPASVSGSPGQSITISCTGTSSDVGGYNYVSWYQQHPGKAPKLMIYDVSNRPSGVSNRFSGSKSGNTASLTISGLQAEDEADYYCSSYTSSSTPVVFGGGTKLTVLG | binds |
| 015-143 antibody (antibody, V domains shown, Clone of the scFv-CL-cp3 phage library) VH: QVQLVQSGAEVKKPGASVKVSCKASGYTFTSYGISWVRQAPGQGLEWMGWISAYNGNTNYAQKLQGRVTMTTDTSTSTAYMELRSLRSDDTAVYYCARAFRDWGSLRDYWGQGTLVTVSR VL: QSVLTQPPSVSAAPGQKVTISCSGSSSNIGNNYVSWYQQLPGTAPKLLIYDNNKRPSGIPDRFSGSKSGTSATLGITGLQTGDEADYYCGTWDSSLSAVVFGGGTKLTVLG | binds |
| 015-044 antibody (antibody, V domains shown, Clone of the scFv-CL-cp3 phage library) VH: QVQLQESGPGLVKPSETLSLTCTVSGGSISSSSYYWGWIRQPPGKGLEWIGSIYYSGSTYYNPSLKSRVTISVDTSKNQFSLKLSSVTAADTAVYYCAMRAYGSGSYDYWGQGTLVTVSR VL: not shown | binds |
| 075-024 antibody (antibody, V domains shown, Clone of the scFv-CL-cp3 phage library) VH: QVQLVQSGAEVKKPGASVKVSCKASGYTFTSYGISWVRQAPGQGLEWMGWISAYNGNTNYAQKLQGRVTMTTDTSTSTAYMELRSLRSDDTAVYYCARGGAFDIWGQGTTVTVSR VL: QSVLTQPPSVSGAPGQRVTISCTGSSSNIGAGYHVYWYQQLPGKAPKLLIYVNSNRPSGVPDRFSGSKSGTSASLAITGLQADDEADYYCQSYDSSLSGRVFGGGTKLTVLG | binds |
| 015-136 antibody (antibody, V domains shown, Clone of the scFv-CL-cp3 phage library) VH: QVQLVQSGSELKKPGASVKVSCKASGYIFTRYGINWVRQAPGQGLEWMGWINTNTGNPTYAQGFTGRVVFSLDTSVSTAYLQISSLKAEDTAMYYCAISSGFGYYFDYWGQGTLVTVSR VL: DIQMTQSPSSVSASVGDRVTITCRASQSISRWLAWYQQKPGKAPKFLIYAGSSLQSGVPSRFSGSGSGTDFTLTISSLQPEDFATYYCQQTNSFPLTFGGGTKVEIK | binds |
| 086-032 antibody (antibody, V domains shown, Clone of the scFv-CL-cp3 phage library) VH: QVQLVQSGSEVKKPGASVKVSCKTSGYIFTDYYMHWVRQAPGKGLEWMGWINPNSGGTYYAQKFHGRVTMTSDTSISTAYMELSSLRSDDTAIYYCAREDYDILTGYYPASGHGDYWGQGTLVTVSR VL: QAVVTQEPSLTVSPGGTVTLTCASSTGAVTSGFLANWFQQKPGQTPRSLIYKTSNKHPWTPARFSGSLLGGKAALTLSGVQPEDEADYYCLLLSGGAWVFGGGTKLSVLG | binds |
| 086-138 antibody (antibody, V domains shown, Clone of the scFv-CL-cp3 phage library) VH: QVQLVQSGSEVKKPGASVKVSCKTSGYIFTDYYMHWVRQAPGKGLEWMGWINPNSGGTYYAQKFHGRVTMTSDTSISTAYMELSSLRSDDTAIYYCAREDYDILTGFYPASGHGDYWGQGTLVTVSR VL: not shown | binds |

— patent US20090203538A1 (INSTITUTE FOR ANTIBODIES, published 2009)
